Here are results for 2 substances from article PMC12065913.

The target in assay [1] is AceE fragment 2, stalled nascent chain (E. coli) (UniProt P0AFG8). Kind of assay: optical tweezers with two-color confocal single-molecule fluorescence; single stalled ribosome-nascent chain complexes tethered between beads by DNA handles; 100 nM labelled TF and 100 nM labelled DnaK in solution, with or without 17 nM DnaJ and 10 nM GrpE; TICO buffer, 1 mM ATP and regeneration system.

Assay [2] concerns the target AceE fragment 5, stalled nascent chain (E. coli). The description is as above.

UniProt P0AFG8, sequence (P0AFG8 1-200): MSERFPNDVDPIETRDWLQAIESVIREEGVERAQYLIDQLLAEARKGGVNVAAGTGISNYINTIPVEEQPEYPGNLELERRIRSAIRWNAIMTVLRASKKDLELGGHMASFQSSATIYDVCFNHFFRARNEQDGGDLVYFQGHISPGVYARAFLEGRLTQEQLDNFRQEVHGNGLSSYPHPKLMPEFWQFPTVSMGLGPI

“TF-99C, ATTO647N labelled (from UniProt P0A850 1-432) (natural protein)”: the binding time (more folded nascent chains) in assay [1] was greater than 50 s.
For “DnaK-290C, ATTO532 labelled (from UniProt P0A6Y8 1-638) (natural protein)”, in assay [2], the residence time (nascent chains folded by more than one-third) is greater than 10 s and the residence time (nascent chains less than one-third folded) is less than 5 s.
